According to paper PMC5234717 (Journal of Lipid Research, 2016):

How the values were obtained:
S1PL2025 [1] = biological target: T1, S1PL2025 (Burkholderia pseudomallei, UniProt Q63IP4)
T1 construct: gene BPSS2025

S1PL2025 [2] = biological target: T1, S1PL2025; remark: listed apart in the source
CCCCCCCCCCCCC/C=C/C=O = assay: purified protein; conditions: pH 7.5; 37.0 °C

T1 sequence (Q63IP4 35-507 limits assumed): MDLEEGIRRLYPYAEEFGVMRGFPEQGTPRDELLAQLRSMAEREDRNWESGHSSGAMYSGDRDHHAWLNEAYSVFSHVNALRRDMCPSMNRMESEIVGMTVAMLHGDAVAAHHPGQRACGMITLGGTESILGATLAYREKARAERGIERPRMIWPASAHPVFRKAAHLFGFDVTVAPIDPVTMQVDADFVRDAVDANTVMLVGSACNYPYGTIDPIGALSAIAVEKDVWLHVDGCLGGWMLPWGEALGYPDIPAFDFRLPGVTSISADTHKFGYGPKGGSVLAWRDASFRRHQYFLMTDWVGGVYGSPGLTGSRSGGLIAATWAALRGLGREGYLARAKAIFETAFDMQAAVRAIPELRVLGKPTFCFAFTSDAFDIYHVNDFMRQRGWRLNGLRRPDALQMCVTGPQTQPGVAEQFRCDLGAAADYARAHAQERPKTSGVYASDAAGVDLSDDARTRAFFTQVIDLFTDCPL

NCCOP(=O)(O)O [PE]
UV-vis spectroscopy of PLP (S1PL2025 [1]): UV-vis analysis of the binding of S1P and PE to the S1PL2025 enzyme

Cc1ncc(COP(=O)(O)O)c(C=O)c1O [PLP]
UV-vis spectroscopy (S1PL2025 [2]): A similar PLP binding spectrum was observed with S1PL2025

FALDH (Homo sapiens)
Km (CCCCCCCCCCCCC/C=C/C=O): 19.4 ± 3.2 µM | Vmax (CCCCCCCCCCCCC/C=C/C=O): 0.315 µmol/min/mg | kcat/Km (CCCCCCCCCCCCC/C=C/C=O): 11300 M⁻¹ s⁻¹
